These results are taken from publication PMC9004659.

The experiment has as its target Recombinant human BAX (wild type) (human) (UniProt Q07812). The experiment in a line: SEC. Background: SEC sorts molecules by how far they enter the pores of the column.

As to “Recombinant human BAX (wild type) (from UniProt Q07812-1) (natural protein)”, the share of the BAX population shifted toward oligomers is > 70%.
